In series [1] the target is SARS-CoV-2 spike protein S1 region (SARS-CoV-2, UniProt P0DTC2 13-685). Briefly: SPR. As to conditions: protein: commercial.
Series [2] has as its target SARS-CoV-2 nucleocapsid protein (SARS-CoV-2, UniProt P0DTC9 1-419). The series can be described thus: SPR. The following applies: protein: commercial.

B1: SBA (ssDNA)
DNA: CACGCATAACGTCTTGCGGGGCGGCGGGTTGAGAGGATGTCGGGTGGTTATGCGTG
Turning to B1, the Kd in series [1] is 9.86 nM.

B2: NBA (ssDNA)
DNA: GCTGGATGTCGCTTACGACAATATTCCTTAGGGGCACCGCTACATTGACACATCCAGC
In series [2], B2 gave a dissociation constant Kd of 0.73 nM. In other words, the sub-nanomolar range.

As a reminder, the Kd is a measure of binding affinity in units of concentration.

(Values after paper PMC10646045, “Multiplexed detection of viral antigen and RNA using nanopore sensing and encoded molecular probes”.)
